In article PMC3684718, “Novel CAD-like enzymes from Escherichia coli K-12 as additional tools in chemical production” (Applied Microbiology and Biotechnology, 2012):

B1: YahK (Escherichia coli K-12) (protein)
chain: MKIKAVGAYSAKQPLEPMDITRREPGPNDVKIEIAYCGVCHSDLHQVRSEWAGTVYPCVPGHEIVGRVVAVGDQVEKYAPGDLVGVGCIVDSCKHCEECEDGLENYCDHMTGTYNSPTPDEPGHTLGGYSQQIVVHERYVLRIRHPQEQLAAVAPLLCAGITTYSPLRHWQAGPGKKVGVVGIGGLGHMGIKLAHAMGAHVVAFTTSEAKREAAKALGADEVVNSRNADEMAAHLKSFDFILNTVAAPHNLDDFTTLLKRDGTMTLVGAPATPHKSPEVFNLIMKRRAIAGSMIGGIPETQEMLDFCAEHGIVADIEMIRADQINEAYERMLRGDVKYRFVIDNRTLTD
notes: expressed in E. coli BL21(DE3) with ZnCl2
B2: YjgB (Escherichia coli K-12) (protein)
chain: MSMIKSYAAKEAGGELEVYEYDPGELRPQDVEVQVDYCGICHSDLSMIDNEWGFSQYPLVAGHEVIGRVVALGSAAQDKGLQVGQRVGIGWTARSCGHCDACISGNQINCEQGAVPTIMNRGGFAEKLRADWQWVIPLPENIDIESAGPLLCGGITVFKPLLMHHITATSRVGVIGIGGLGHIAIKLLHAMGCEVTAFSSNPAKEQEVLAMGADKVVNSRDPQALKALAGQFDLIINTVNVSLDWQPYFEALTYGGNFHTVGAVLTPLSVPAFTLIAGDRSVSGSATGTPYELRKLMRFAARSKVAPTTELFPMSKINDAIQHVRDGKARYRVVLKADF
notes: as for B1

Assays:
purified protein [1] = substrate: CC(C)C=O; experiment: purified protein; conditions: NADPH 0.3 mM, 50 mM Tris-HCl pH 7.5, 37 °C
purified protein [2] = substrate: CCCCCC=O; experiment: purified protein; conditions: NADPH 0.3 mM, 50 mM Tris-HCl pH 7.5, 37 °C
purified protein [3] = substrate: O=C[C@H](O)CO; experiment: purified protein; conditions: NADPH 0.3 mM, 50 mM Tris-HCl pH 7.5, 37 °C
purified protein [4] = substrate: C/C=C/C=O; experiment: purified protein; format: biochemical, Escherichia coli; conditions: NADPH 0.3 mM, 50 mM Tris-HCl pH 7.5, 37 °C, pH 7.5
purified protein [5] = substrate: CCCC=O; experiment: purified protein; format: biochemical, Escherichia coli; conditions: NADPH 0.3 mM, 50 mM Tris-HCl pH 7.5, 37 °C, pH 7.5
purified protein [6] = substrate: NC(=O)C1=CN([C@@H]2O[C@H](COP(=O)(O)OP(=O)(O)OC[C@H]3O[C@@H](n4cnc5c(N)ncnc54)[C@H](OP(=O)(O)O)[C@@H]3O)[C@@H](O)[C@H]2O)C=CC1; experiment: purified protein; format: biochemical, Escherichia coli; conditions: butyraldehyde, 50 mM Tris-HCl pH 7.5, 37 °C, pH 7.5, varied: cofactor
purified protein [7] = substrate: NC(=O)c1ccc[n+]([C@@H]2O[C@H](COP(=O)(O)OP(=O)(O)OC[C@H]3O[C@@H](n4cnc5c(N)ncnc54)[C@H](OP(=O)(O)O)[C@@H]3O)[C@@H](O)[C@H]2O)c1; experiment: purified protein; format: biochemical, Escherichia coli; conditions: butanol, 50 mM Tris-HCl pH 8.5, 37 °C, pH 8.5, varied: cofactor
purified protein [8] = substrate: O=CCCCC=O; experiment: purified protein; format: biochemical, Escherichia coli; conditions: NADPH 0.3 mM, 50 mM Tris-HCl pH 7.5, 37 °C, pH 7.5
purified protein [9] = substrate: O=Cc1ccccc1; experiment: purified protein; format: biochemical, Escherichia coli; conditions: NADPH 0.3 mM, 50 mM Tris-HCl pH 7.5, 37 °C, pH 7.5
purified protein [10] = substrate: O=Cc1ccco1; experiment: purified protein; format: biochemical, Escherichia coli; conditions: NADPH 0.3 mM, 50 mM Tris-HCl pH 7.5, 37 °C, pH 7.5
[11] = substrate: CC=O; experiment: purified protein, by the assay type; design: NADPH/NADP+ absorbance at 340 nm, purified His-tagged enzyme, Michaelis-Menten fit; pH 7.5 reduction, pH 8.5 oxidation, 37 °C
Protocol: (§1) The ADH activity was determined photometrically by monitoring the increase/decrease of NADP^+/NADPH at 340 nm in a Mulitskan® spectrum spectrophotometer (Thermo Fisher Scientific). The reaction mixture contained 50 mM Tris-HCl, pH 7.5, 0.3 mM NAD(P)H a defined aldehyde as substrate, and the purified enzyme at 37 °C. One unit of enzyme activity was defined as the amount of protein that oxidizes 1 μmol of NAD(P)H/min at 37 °C. Calculation of Michaelis–Menten kinetics for determination of K m and V max was done with SigmaPlot 11.0 (Systat Software). Alcohols with alkyl chains longer than C6 were not tested as substrates due to solubility problems. For the characterization of recombinant YahK and YjgB, enzyme activity was assayed for the reduction of carbonyl compounds and the oxidation of alcohols. For the reduction of carbonyl compounds, the assays were conducted at pH 7.5, 50 mM Tris-HCl, and 37 °C. The oxidation of alcohols was assayed with a slightly higher pH of 8.5, 50 mM Tris-HCl, and 37 °C. […] The decrease of NADPH at 340 nm was determined using a Shimadzu UV-1800 UV-spectrophotometer (Duisburg, Germany) Protein expression is exemplarily described for one enzyme and was performed for other proteins by the same procedure. E. coli BL21(DE3) containing the plasmid of interest was grown in 50 ml autoinduction media for efficient protein expression (Studier [2005]). In the case of YjgB, YahK, and YqhD, additional ZnCl2 was added to the media with a final concentration of 0.1 mM. The preculture was incubated in 4 ml of LB medium with 100 μg/ml kanamycin at 37 °C overnight on a rotary shaker (180 rpm). Expression culture was inoculated with a 1:100 dilution of overnight culture. Incubation was performed foremost 3 h at 37 °C followed by incubation for 21 h at 16 °C. Cells were harvested by centrifugation and resuspended in 50 mM sodium phosphate buffer (pH 8.0, 20 mM imidazol, 500 mM NaCl, and 10 % glycerol). Crude extracts were prepared by use of a cell disrupter (IUL Instruments) and subsequent addition of MgCl2 to a final concentration of 2.5 mM in combination with DNase (1 μg/ml) and a following incubation for 20 min at room temperature for DNA degradation. The insoluble fraction of the lysate was removed by centrifugation at 20,000 rpm for 40 min at 4 °C. The supernatant was filtered through a 0.45-μm syringe filter and applied to an affinity resin column, 5 ml HisTrap^TM FF, equilibrated with the resuspension buffer using the ÄKTA UPC-900 FPLC-system. The enzyme was washed with 20 ml of resuspension buffer and eluted with 50 mM sodium phosphate buffer (pH 8.0, 500 mM imidazol, 500 mM NaCl, and 10 % glycerol). Aliquots of each eluted fraction were subjected to 12 % SDS-PAGE. The fractions containing the eluted protein were pooled and the protein was desalted using a HiPrep^TM 26/10 Desalting column which preliminary equilibrated with 50 mM Tris-HCl, pH 8.0. Protein concentrations were determined using a Bradford assay Roti®-nanoquant (Carl Roth).

[12] = substrate: CCC=O; experiment: purified protein, by the assay type; design: NADPH/NADP+ absorbance at 340 nm, purified His-tagged enzyme, Michaelis-Menten fit; pH 7.5 reduction, pH 8.5 oxidation, 37 °C
Protocol: as §1

[13] = substrate: OCCCCO; experiment: purified protein, by the assay type; design: NADPH/NADP+ absorbance at 340 nm, purified His-tagged enzyme, Michaelis-Menten fit; pH 7.5 reduction, pH 8.5 oxidation, 37 °C
Protocol: as §1

purified protein [14] = substrate: CCC=O; experiment: purified protein; format: biochemical, Escherichia coli; conditions: NADPH 0.3 mM, 50 mM Tris-HCl pH 7.5, 37 °C, pH 7.5
purified protein [15] = substrate: CCCCO; experiment: purified protein; format: biochemical, Escherichia coli; conditions: NADP+, 50 mM Tris-HCl pH 8.5, 37 °C, pH 8.5
[16] = substrate: CC(C)C=O; experiment: purified protein, by the assay type; design: NADPH/NADP+ absorbance at 340 nm, purified His-tagged enzyme, Michaelis-Menten fit; pH 7.5 reduction, pH 8.5 oxidation, 37 °C
Protocol: as §1

Protein | Km (purified protein [2]) | kcat (purified protein [2]) | kcat/Km (purified protein [2]) | Km (purified protein [4]) | kcat (purified protein [4]) | kcat/Km (purified protein [4]) | Km (purified protein [5]) | kcat (purified protein [5]) | kcat/Km (purified protein [5]) | Km (purified protein [6]) | kcat (purified protein [6]) | kcat/Km (purified protein [6]) | Km (purified protein [7]) | kcat (purified protein [7]) | kcat/Km (purified protein [7]) | Km (purified protein [8]) | kcat (purified protein [8]) | kcat/Km (purified protein [8]) | Km (purified protein [9]) | kcat (purified protein [9]) | also measured
B1 | 0.37 ± 0.02 mM | 18.3 s⁻¹ | 49500 M⁻¹ s⁻¹ | 3.6 ± 0.4 mM | 32.6 ± 2.1 s⁻¹ | 9100 M⁻¹ s⁻¹ | 2.1 ± 0.1 mM | 41.6 ± 0.6 s⁻¹ | 19800 M⁻¹ s⁻¹ | 0.011 ± 0.001 mM | 9.8 ± 0.4 s⁻¹ | 894000 M⁻¹ s⁻¹ | 0.012 ± 0.001 mM | 7.47 ± 0.07 s⁻¹ | 622000 M⁻¹ s⁻¹ | 4.1 ± 0.4 mM | 13.4 ± 1.5 s⁻¹ | 3300 M⁻¹ s⁻¹ | 0.29 ± 0.02 mM | 7.75 ± 0.5 s⁻¹ | Km (purified protein [1]): 2.2 ± 0.2 mM; kcat (purified protein [1]): 32.1 s⁻¹; kcat/Km (purified protein [1]): 14600 M⁻¹ s⁻¹; Km (purified protein [3]): 4.4 ± 0.4 mM; kcat (purified protein [3]): 12.3 s⁻¹; kcat/Km (purified protein [3]): 2800 M⁻¹ s⁻¹; kcat/Km (purified protein [9]): 26700 M⁻¹ s⁻¹; Km (purified protein [10]): 0.135 ± 0.03 mM; kcat (purified protein [10]): 12.5 ± 1.9 s⁻¹; kcat/Km (purified protein [10]): 92300 M⁻¹ s⁻¹; Km [11]: 13.3 ± 1.0 mM; kcat [11]: 11.2 ± 0.7 s⁻¹; kcat/Km [11]: 840 M⁻¹ s⁻¹; Km [12]: 10.9 ± 1.0 mM; kcat [12]: 11.6 ± 0.6 s⁻¹; kcat/Km [12]: 1100 M⁻¹ s⁻¹; Km [13]: 38.5 ± 2.9 mM; kcat [13]: 6.7 ± 0.3 s⁻¹; kcat/Km [13]: 180 M⁻¹ s⁻¹
B2 | 0.34 ± 0.03 mM | 419 s⁻¹ | 1.23e+06 M⁻¹ s⁻¹ | 2.4 ± 0.2 mM | 77.6 ± 3.3 s⁻¹ | 32300 M⁻¹ s⁻¹ | 2.1 ± 0.09 mM | 464 ± 24.2 s⁻¹ | 221000 M⁻¹ s⁻¹ | 0.06 ± 0.003 mM | 224 ± 36.5 s⁻¹ | 3.73e+06 M⁻¹ s⁻¹ | 0.076 ± 0.01 mM | 14.4 ± 0.2 s⁻¹ | 189000 M⁻¹ s⁻¹ | 5.8 ± 0.5 mM | 312 ± 14.8 s⁻¹ | 53800 M⁻¹ s⁻¹ | 0.24 ± 0.02 mM | 313 ± 7.4 s⁻¹ | Km (purified protein [14]): 19.6 ± 0.8 mM; kcat (purified protein [14]): 207 ± 2.9 s⁻¹; kcat/Km (purified protein [14]): 10600 M⁻¹ s⁻¹; Km (purified protein [15]): 3.5 ± 0.28 mM; kcat (purified protein [15]): 13.8 ± 0.6 s⁻¹; kcat/Km (purified protein [15]): 3940 M⁻¹ s⁻¹; kcat/Km (purified protein [9]): 1.3e+06 M⁻¹ s⁻¹; Km (purified protein [10]): 0.22 ± 0.02 mM; kcat (purified protein [10]): 224 ± 26.9 s⁻¹; kcat/Km (purified protein [10]): 1.02e+06 M⁻¹ s⁻¹; Km [16]: 193.7 ± 27.5 mM; kcat [16]: 50.8 ± 9.4 s⁻¹; kcat/Km [16]: 260 M⁻¹ s⁻¹; Km [11]: 73.4 ± 5.4 mM; kcat [11]: 333 ± 26.1 s⁻¹; kcat/Km [11]: 4500 M⁻¹ s⁻¹; Km [13]: 24.1 ± 1.5 mM; kcat [13]: 12.9 ± 0.4 s⁻¹; kcat/Km [13]: 530 M⁻¹ s⁻¹
